Measured values from patent US20230235039A1.
Residue numbers refer to the chain shown, from its start. Each block holds one binder with its values, some of them ahead of it.

Experiments:
[1] = target: human recombinant IL-5 protein with a histidine tag at carboxyl terminal (human) (UniProt P05113); test: cell-based or functional assay
[2] = target: IL-5 protein (Novoprotein, Cat #CS 33) (human) (UniProt P05113); test: indirect ELISA on IL-5 protein, antibody titrated, OD450
[3] = target: human recombinant IL-5 protein with a histidine tag at carboxyl terminal (human) (UniProt P05113); test: BLI (Octet 96), binding molecule on sensor, IL-5 antigen 200 nM and 2-fold dilutions

EC50 for neutralizing IL-5-induced TF-1 cell proliferation [1]: 0.0664 | EC50 (read off the curve) [2]: 0.8 nM
B5: Tab2 (control antibody 2), reslizumab (antibody, INN chains, looked up, V domains shown)
VH: EVQLVESGGGLVQPGGSLRLSCAVSGLSLTSNSVNWIRQAPGKGLEWVGLIWSNGDTDYNSAIKSRFTISRDTSKSTVYLQMNSLRAEDTAVYYCAREYYGYFDYWGQGTLVTVSS
VL: DIQMTQSPSSLSASVGDRVTITCLASEGISSYLAWYQQKPGKAPKLLIYGANSLQTGVPSRFSGSGSATDYTLTISSLQPEDFATYYCQQSYKFPNTFGQGTKVEVK

EC50 for neutralizing IL-5-induced TF-1 cell proliferation [1]: 2.82
B7: humanized Fc-fused single-domain antibody 1B3-V1 (Fc fusion, not shown: a dimerising Fc or GST)
chain (part 1 of 2): QVQLVESGGGLVQPGGSLRLSCAASGITASTSCMGWFRQAPGKGLEAVAATIYDGSTYYADSVKGRFTISRDNSKNTLYLQMNSLRAEDTAVYYCAAARYCMFWSHPSYWGQGTLVTVSS
chain (part 2 of 2): HHHHHH

EC50 for neutralizing IL-5-induced TF-1 cell proliferation [1]: 0.219
B10: humanized Fc-fused single-domain antibody 1B3-V3 (Fc fusion, not shown: a dimerising Fc or GST)
chain (part 1 of 2): QVQLVESGGGSVQAGGSLRLSCAASGITASTSCMGWFRQSPGKEREGSLATIYDASTSYADSVKGRFTISVDNAKNILYLQMNNLKPEDTAMYYCAAARYCMFWSHPSYWGQGTQVTVSS
chain (part 2 of 2): HHHHHH

EC50 for neutralizing IL-5-induced TF-1 cell proliferation [1]: 0.237
B11: humanized Fc-fused single-domain antibody 1B3-V4 (Fc fusion, not shown: a dimerising Fc or GST)
chain (part 1 of 2): B10 chain (part 1 of 2) with V71R, K86R, P87A, M92V
chain (part 2 of 2): HHHHHH

EC50 for neutralizing IL-5-induced TF-1 cell proliferation [1]: 0.274
B14: humanized Fc-fused single-domain antibody 1B3-V5 (Fc fusion, not shown: a dimerising Fc or GST)
chain (part 1 of 2): B10 chain (part 1 of 2) with A55G, V71R, A74S, K86R, P87A, M92V
chain (part 2 of 2): HHHHHH

Continued, binder first:

B1: Fc fusion protein of anti-IL-5 single-domain antibody 4B12 (Fc fusion, not shown: a dimerising Fc or GST)
chain (part 1 of 2): QVQLVESGGGSVQPGGSLRLSCAASGNTFSFSTYCMGWFRQSPGKEREGSLATIYDGSTAYAGSVKGRFTVSVDNAKNILYLQMNNLKPEDTAMYYCASAKYCMFWSDPSYWGQGTQVTVSS
chain (part 2 of 2): HHHHHH
EC50 for neutralizing IL-5-induced TF-1 cell proliferation [1]: 0.196

B2: Fc fusion protein of anti-IL-5 single-domain antibody 4D5 (Fc fusion, not shown: a dimerising Fc or GST)
chain (part 1 of 2): B1 chain (part 1 of 2) with P14A, F31T, V71I, S99A
chain (part 2 of 2): HHHHHH
EC50 for neutralizing IL-5-induced TF-1 cell proliferation [1]: 0.427

B3: Fc fusion protein of anti-IL-5 single-domain antibody 3G12 (Fc fusion, not shown: a dimerising Fc or GST)
chain (part 1 of 2): QVQLVESGGGSVQAGGSLRLSCVASGLTLNDVSMAWFRQAPGKEREEVAGIDIDGLISYADSVKGRFTISKDNAQNTLYLQMNSLKPEDTAMYSCAAVRLYFSSSRNQYKYEGQGTQVTVSS
chain (part 2 of 2): HHHHHH
EC50 for neutralizing IL-5-induced TF-1 cell proliferation [1]: 2.09

B4: Fc fusion protein of anti-IL-5 single-domain antibody 4C3 (Fc fusion, not shown: a dimerising Fc or GST)
chain (part 1 of 2): B3 chain (part 1 of 2) with S62P, L78M
chain (part 2 of 2): HHHHHH
EC50 for neutralizing IL-5-induced TF-1 cell proliferation [1]: 4.4

B6: Tab1 (control antibody 1), mepolizumab (antibody, INN chains, looked up, V domains shown)
VH: QVTLRESGPALVKPTQTLTLTCTVSGFSLTSYSVHWVRQPPGKGLEWLGVIWASGGTDYNSALMSRLSISKDTSRNQVVLTMTNMDPVDTATYYCARDPPSSLLRLDYWGRGTPVTVSS
VL: DIVMTQSPDSLAVSLGERATINCKSSQSLLNSGNQKNYLAWYQQKPGQPPKLLIYGASTRESGVPDRFSGSGSGTDFTLTISSLQAEDVAVYYCQNVHSFPFTFGGGTKLEIK
EC50 for neutralizing IL-5-induced TF-1 cell proliferation [1]: 0.234 | Kd [3]: 0.99 nM | koff [3]: 8.22e-05 s⁻¹ | kon [3]: 82600 M⁻¹ s⁻¹

B8: Fc fusion protein of anti-IL-5 single-domain antibody 4G8 (Fc fusion, not shown: a dimerising Fc or GST)
chain (part 1 of 2): B10 chain (part 1 of 2) with A29S, A55G, S56A, T57I, R99K, H106D
chain (part 2 of 2): HHHHHH
EC50 for neutralizing IL-5-induced TF-1 cell proliferation [1]: 0.176

B9: Fc fusion protein of anti-IL-5 single-domain antibody 2G6 (Fc fusion, not shown: a dimerising Fc or GST)
chain (part 1 of 2): B10 chain (part 1 of 2) with A29S, A55G, S56N, T57I, R99K, H106D
chain (part 2 of 2): HHHHHH
EC50 for neutralizing IL-5-induced TF-1 cell proliferation [1]: 0.188

B12: Fc fusion protein of anti-IL-5 single-domain antibody 2F7 (Fc fusion, not shown: a dimerising Fc or GST)
chain (part 1 of 2): B10 chain (part 1 of 2) with A55G, E88A, R99K
chain (part 2 of 2): HHHHHH
EC50 for neutralizing IL-5-induced TF-1 cell proliferation [1]: 0.15

B13: Fc fusion protein of anti-IL-5 single-domain antibody 1B8 (Fc fusion, not shown: a dimerising Fc or GST)
chain (part 1 of 2): B10 chain (part 1 of 2) with A55G, R66Q, R99K
chain (part 2 of 2): HHHHHH
EC50 for neutralizing IL-5-induced TF-1 cell proliferation [1]: 0.175

B15: Fc fusion protein of anti-IL-5 single-domain antibody 4H2 (Fc fusion, not shown: a dimerising Fc or GST)
chain (part 1 of 2): B10 chain (part 1 of 2) with G8E, A24V, A29S, S32A, A55G, T57I, R99K, H106D
chain (part 2 of 2): HHHHHH
EC50 for neutralizing IL-5-induced TF-1 cell proliferation [1]: 0.189

B16: Fc fusion protein of anti-IL-5 single-domain antibody 1F4 (Fc fusion, not shown: a dimerising Fc or GST)
chain (part 1 of 2): QVQLVESGGGSAQAGGSLRLSCAASGNTLDLMAWFRQAPGKEREGVAGIYSSGTTYYADSVKGRFTVSRDNAKNTVYLQMNSLKPEDAAMYYCAAKVSWYGRWYQSETYEYWGQGTQVTVSS
chain (part 2 of 2): HHHHHH
EC50 for neutralizing IL-5-induced TF-1 cell proliferation [1]: 0.1
